{"source": "patent US20130149309A1", "target": "γ-secretase of HEK293 cell membrane preparations", "experiment": "cell-based or functional assay", "data": [{"substance": "recombinant gSAP-16K (aa733-854 of the human gSAP), expressed and purified from BL21 DE3 E.coli (from UniProt A4D1B5 733-854)", "values": [{"measurement": "Aβ production in an in vitro γ-secretase assay", "result": 2.4, "unit": "fold"}]}]}
